From US20170107258

Legend:
[1] = test system: T1, cyclic peptide P2, c(rLSKDK)
T1 sequence: RLSKDK

[2] = test system: T2, cyclic peptide P1, c(RLsKDK), cyclo(Arg-Leu-{β-Ser}-Lys-Asp-Lys)
T2 sequence: RLSKDK

[3] = test system: T3, cyclic peptide P3, c(RlSKDK)
T3 sequence: RLSKDK

**Q.** purified recombinant ADAM8 was tested. Which “ADAM8 proteolytic activity, fluorogenic CD23 peptide, peptides at 100 nM” value (“ADAM8 proteolytic activity” below) [1] did it give?
**A.** The value was “Cyclic peptides P2 and P3 showed inhibition of ADAM8 proteolytic activity”.

**Q.** And the “ADAM8 proteolytic activity” value [2]?
**A.** Its value is “cyclic peptide P1 showed the most marked inhibition”.

**Q.** And the “ADAM8 proteolytic activity” value [3]?
**A.** Its value is “Cyclic peptides P2 and P3 showed inhibition of ADAM8 proteolytic activity”.
